In the supplement of paper PMC10126150:
± gives the standard deviation of the averaged measurements.

Tested on: ATP
Test: switch fluorescence ratio, 500 uM ATP over buffer (Cy3 cluster intensity, sum of 5 cycles each) (fold (ratio)); higher = stronger signal-on switching upon ATP binding; sequences stand for … in TCGTCGGCAGCGTCAGATGTGTATAAGAGACAGTTTTTTTTTTTTTTTTTTTTTTTTT…TC
Settings: aptamer strand: ATP DNA aptamer (quencher-CACCTGGGGGAGTATTGCGGAGGAAGG + anchor), 100 nM annealed; ATP concentration: 500 uM
Summary of the method: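 The fluorescence ratio divides summed target-cycle Cy3 intensity by summed buffer-cycle Cy3 intensity for each cluster and is averaged per switch-domain sequence. Cy3-labelled switching-strand clusters on a modified Illumina MiSeq flow-cell were annealed to 100 nM quencher-labelled ATP aptamer, then imaged in selection buffer and again after 15 min with 500 uM ATP at 22 °C. Five such cycles were run, with NaOH stripping and re-annealing between them, and clusters outside 100-1000 RFU were excluded.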
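Further: ATP exposure 15 min at 22 °C before imaging.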

| Sequence | switch fluorescence ratio |
| --- | --- |
| TTAAATGGTG | 1.05 ± 0.072 |
| TTAAATTATC | 1.041 ± 0.0058 |
| TTAAATTGCT | 0.991 ± 0.025 |
| TTAACACGTA | 1.2 ± 0.024 |
| TTAACCAAGA | 0.9755 ± 0.0022 |
| TTAACGGGAA | 1 ± 0.024 |
| TTAACGGGGA | 1.02 ± 0.017 |
| TTAACGGGGG | 0.984 ± 0.043 |
| TTAACGGTTC | 0.983 ± 0.017 |
| TTAACGTAAG | 1 ± 0.037 |
| TTAACTATGG | 1.016 ± 0.0066 |
| TTAACTGGGA | 0.998 ± 0.026 |
| TTAACTTTTT | 1.07 ± 0.053 |
| TTAAGAACAA | 1.02 ± 0.03 |
| TTAAGAACG | 1.002 ± 0.0087 |
| TTAAGAATTG | 1.04 ± 0.12 |
| TTAAGAGGTG | 1.09 ± 0.034 |
| TTAAGATTGG | 0.959 ± 0.015 |
| TTAAGCAGTT | 0.9853 ± 0.0056 |
| TTAAGCCCGG | 1.04 ± 0.066 |
| TTAAGCCTG | 1.012 ± 0.0021 |
| TTAAGCGAAT | 1.002 ± 0.0059 |
| TTAAGCGGGA | 1.01 ± 0.015 |
| TTAAGCTAGG | 1.004 ± 0.0054 |
| TTAAGGAGGT | 1.03 ± 0.099 |

| Sequence | switch fluorescence ratio |
| --- | --- |
| TTAAGGGAGC | 1.02 ± 0.052 |
| TTAAGGGCTT | 1.01 ± 0.021 |
| TTAAGGTAGC | 1.03 ± 0.013 |
| TTAAGGTATG | 0.997 ± 0.019 |
| TTAAGGTTAA | 1 ± 0.029 |
| TTAAGGTTTT | 1 ± 0.03 |
| TTAAGTAATG | 1.002 ± 0.0016 |
| TTAAGTAGGG | 1.01 ± 0.029 |
| TTAAGTAGTT | 1.02 ± 0.0099 |
| TTAAGTGCGG | 1 ± 0.02 |
| TTAAGTGCTG | 1.02 ± 0.036 |
| TTAAGTTACA | 1.05 ± 0.032 |
| TTAAGTTCGG | 1.02 ± 0.013 |
| TTAAGTTTTC | 0.979 ± 0.015 |
| TTAAGTTTTT | 0.98835 ± 0.00077 |
| TTAATAAGGT | 1.01 ± 0.035 |
| TTAATAATAT | 1 ± 0.021 |
| TTAATAGCGG | 0.997 ± 0.049 |
| TTAATAGTGA | 0.973 ± 0.021 |
| TTAATATAGG | 0.999 ± 0.011 |
| TTAATCCATG | 0.988 ± 0.011 |
| TTAATCTGCG | 1.01 ± 0.032 |
| TTAATGAATA | 1.01 ± 0.035 |
| TTAATGGGCG | 1.09 ± 0.18 |
| TTAATGGGTT | 1.09 ± 0.14 |

| Sequence | switch fluorescence ratio |
| --- | --- |
| TTAATGTGGA | 0.993 ± 0.046 |
| TTAATTATTT | 0.998 ± 0.029 |
| TTAATTGTAT | 0.992 ± 0.034 |
| TTAATTGTGT | 0.993 ± 0.0095 |
| TTAATTTAAG | 0.992 ± 0.038 |
| TTAATTTGGG | 1.01 ± 0.024 |
| TTAATTTGTG | 0.986 ± 0.017 |
| TTAATTTTAT | 0.991 ± 0.015 |
| TTACAAGGAT | 0.997 ± 0.012 |
| TTACAAGGGT | 0.973 ± 0.023 |
| TTACAATCAA | 0.999 ± 0.047 |
| TTACACGTAA | 1.31 ± 0.019 |
| TTACACTGTG | 1.001 ± 0.0054 |
| TTACAGTTCG | 1.013 ± 0.0082 |
| TTACATAAGG | 1.006 ± 0.0048 |
| TTACATCGGA | 0.982 ± 0.03 |
| TTACATTGTT | 1.06 ± 0.11 |
| TTACCAGGGG | 1.4 ± 0.25 |
| TTACCATCGG | 1.01 ± 0.024 |
| TTACCATGGA | 0.995 ± 0.0021 |
| TTACCCGGAA | 1.9 ± 0.048 |
| TTACCCTAGG | 1.14 ± 0.024 |
| TTACCGGATT | 0.993 ± 0.022 |
| TTACCGGGGG | 1.042 ± 0.0095 |
| TTACCGGGGT | 0.995 ± 0.035 |

| Sequence | switch fluorescence ratio |
| --- | --- |
| TTACCGTCGC | 1.037 ± 0.0027 |
| TTACCTACTT | 1.17 ± 0.12 |
| TTACCTTTGG | 1.005 ± 0.0087 |
| TTACGCAACC | 2.91 ± 0.58 |
| TTACGCCGTT | 0.9446 ± 0.0049 |
| TTACGCTATT | 3.4 ± 2.4 |
| TTACGGGCGC | 0.9684 ± 0.0086 |
| TTACGGGCTT | 0.989 ± 0.027 |
| TTACGGGGCC | 0.977 ± 0.049 |
| TTACGGGGTG | 1.02 ± 0.019 |
| TTACGGTAGG | 1.01 ± 0.075 |
| TTACGGTGGC | 0.989 ± 0.045 |
| TTACGTCCGT | 1.04 ± 0.02 |
| TTACGTGAGG | 1.02 ± 0.045 |
| TTACGTTAAT | 1.18 ± 0.095 |
| TTACTACCGG | 1.04 ± 0.012 |
| TTACTCGCAT | 2.3 ± 1.2 |
| TTACTCTGGG | 1.003 ± 0.0032 |
| TTACTGCGTA | 1.02 ± 0.015 |
| TTACTTATTA | 1.07 ± 0.018 |
| TTACTTGATG | 1.02 ± 0.031 |
| TTACTTGCGT | 1.06 ± 0.035 |
| TTACTTTAGG | 1.05 ± 0.023 |
| TTACTTTCCG | 1.11 ± 0.019 |
| TTACTTTGAA | 1.01 ± 0.029 |
